Measured values published in paper PMC6999906 (PLoS ONE, 2020).
pKi: −log10 of the molar value.

Legend:
[1] = target: Mtb ThyX (thymidylate synthase ThyX) (Mycobacterium tuberculosis, UniProt P9WG57); assay: […]; also NADPH oxidase assay (IC50 about […]); type: biochemical
[2] = system: Nc1nc2c(c(=O)[nH]1)N1CN(c3ccc(C(=O)N[C@@H](CCC(=O)O)C(=O)O)cc3)C[C@H]1CN2; assay: purified protein; conditions: FAD
[3] = system: O=c1ccn([C@H]2C[C@H](O)[C@@H](COP(=O)(O)O)O2)c(=O)[nH]1; assay: purified protein; conditions: FAD
[4] = system: NC(=O)C1=CN([C@@H]2O[C@H](COP(=O)(O)OP(=O)(O)OC[C@H]3O[C@@H](n4cnc5c(N)ncnc54)[C@H](OP(=O)(O)O)[C@@H]3O)[C@@H](O)[C@H]2O)C=CC1; assay: purified protein; conditions: FAD

Mtb ThyX (thymidylate synthase ThyX), sequence (P9WG57 whole entry): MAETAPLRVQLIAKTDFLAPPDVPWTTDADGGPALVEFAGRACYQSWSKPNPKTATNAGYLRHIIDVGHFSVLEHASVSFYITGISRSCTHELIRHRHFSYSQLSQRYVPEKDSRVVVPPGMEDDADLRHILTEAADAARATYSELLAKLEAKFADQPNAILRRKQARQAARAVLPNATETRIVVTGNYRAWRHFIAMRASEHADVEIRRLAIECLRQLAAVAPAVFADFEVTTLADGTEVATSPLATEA

Row | Compound | pKi [1] | Km [2] [µM] | Vmax [2] [µmol/min/mg] | Km [3] [µM] | Vmax [3] [µmol/min/mg] | Km [4] [µM] | Vmax [4] [µmol/min/mg]
1 | CC1=CC(=O)c2c(O)cccc2C1=O [plumbagin, 5-hydroxy-2-methyl-1,4-naphthoquinone] | 5.09 | – | – | – | – | – | –
2 | Mtb ThyX (thymidylate synthase ThyX) (Mycobacterium tuberculosis H37Rv) | – | 6.467 | 0.00228 | 3.526 ± 0.68 | 0.00695 | 35.22 | 0.00323
